Test results: publication PMC7082075
pKd: −log10 of the molar value. Values joined by “and” are separate entries in the source; they are usually repeats but may differ in a detail not shown here. Equal values may be shown once.

Legend:
[1] = target: PX domain of SNX5 (SNX5^PX) (UniProt Q9Y5X3); assay: ITC; S4C Fig: approximately 0.5–1 mM of CI-MPR (aa21–48) WT or loop-deletion peptides titrated into SNX5^PX (50 μM); 100 mM HEPES pH 7.5, 300 mM NaCl, 2 mM βME, 25°C; one set of sites model; single values of triplicates
PX domain of SNX5 (SNX5^PX), sequence (Q9Y5X3 25-172): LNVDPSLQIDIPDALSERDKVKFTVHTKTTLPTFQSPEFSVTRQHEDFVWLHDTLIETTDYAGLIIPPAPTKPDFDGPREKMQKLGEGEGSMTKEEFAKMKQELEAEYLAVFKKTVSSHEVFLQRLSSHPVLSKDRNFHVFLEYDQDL

[2] = target: PX domain of SNX5 (SNX5^PX) (UniProt Q9Y5X3); assay: ITC; Fig 2B: CI-MPR (aa21–48) WT or alanine mutants titrated into SNX5^PX; 100 mM Hepes pH 7.5, 300 mM NaCl, 2 mM βME, 25°C; single values of triplicates
[3] = target: PX domain of SNX5 (SNX5^PX) (UniProt Q9Y5X3); assay: ITC; Fig 1D: approximately 2–3 mM of peptides titrated into SNX5^PX (300 μM); 100 mM HEPES pH 7.5, 300 mM NaCl, 2 mM βME, 25°C; one set of sites model; single values of triplicates
[4] = target: PX domain of SNX32 (SNX32^PX); assay: ITC; S1B Fig: approximately 2–3 mM of CI-MPR (aa21–48) peptide titrated into approximately 100–300 μM of SNX5^PX, SNX6^PX or SNX32^PX; 100 mM HEPES pH 7.5, 300 mM NaCl, 2 mM βME, 25°C; one set of sites model; single values of triplicates
[5] = target: PX domain of SNX5 (SNX5^PX) (UniProt Q9Y5X3); assay: as above
[6] = target: PX domain of SNX6 (SNX6^PX) (UniProt Q9UNH7); assay: as above
PX domain of SNX6 (SNX6^PX), sequence (Q9UNH7 26-173): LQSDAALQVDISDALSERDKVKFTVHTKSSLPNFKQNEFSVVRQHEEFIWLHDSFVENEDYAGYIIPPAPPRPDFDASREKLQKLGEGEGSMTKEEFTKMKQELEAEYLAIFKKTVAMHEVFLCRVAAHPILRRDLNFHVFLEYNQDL

[7] = target: SNX3-retromer complex (Retromer + SNX3) (UniProt Q96QK1); assay: ITC; approximately 2–3 mM peptide titrated into SNX5^PX (300 μM) or the SNX3-retromer complex (10 μM Retromer + 100 μM SNX3); 100 mM HEPES pH 7.5, 300 mM NaCl, 2 mM βME, 25°C; one set of sites model (Fig 1D, 1E, 2B)
SNX5^PX [8] = target: SNX5^PX (UniProt Q9Y5X3); assay: as above
SNX5^PX, sequence (Q9Y5X3 20-180): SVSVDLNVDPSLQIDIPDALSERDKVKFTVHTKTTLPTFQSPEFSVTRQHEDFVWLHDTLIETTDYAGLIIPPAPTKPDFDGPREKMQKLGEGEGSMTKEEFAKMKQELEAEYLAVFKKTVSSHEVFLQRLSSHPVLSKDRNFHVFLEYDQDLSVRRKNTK

SNX5^PX [9] = target: SNX5^PX (UniProt Q9Y5X3); assay: ITC; loop length: approximately 0.5–1 mM peptide titrated into SNX5^PX (50 μM); 100 mM HEPES pH 7.5, 300 mM NaCl, 2 mM βME, 25°C (S4C Fig)
SNX6^PX = SNX6^PX (UniProt Q9UNH7); assay: ITC; approximately 2–3 mM CI-MPR (aa21–48) titrated into approximately 100–300 μM SNX5^PX, SNX6^PX or SNX32^PX; 100 mM HEPES pH 7.5, 300 mM NaCl, 2 mM βME, 25°C (S1B Fig)
SNX32^PX = assay: as above
SNX5^PX [10] = target: SNX5^PX (UniProt Q9Y5X3); assay: as above

pKd [1] | pKd [2] | pKd [3] | pKd [4] | pKd [5] | pKd [6] | pKd [7] | pKd (SNX5^PX [8]) | pKd (SNX5^PX [9]) | pKd (SNX6^PX) | pKd (SNX32^PX) | pKd (SNX5^PX [10]) | Substance
5.05 and 4.59 and 4.72 | 4.74 and 4.96 and 4.60 | 4.89 and 4.66 and 4.72 | 4.74 and 4.82 and 4.68 | 4.66 and 4.77 and 4.82 | 4.36 and 4.44 and 4.55 |  |  |  |  |  |  | CI-MPR (aa21–48) peptide, wild type
 |  |  |  |  |  | < 3.40 | 4.74 | 4.74 | 4.44 | 4.74 | 4.74 | CI-MPR peptide (aa21–48)
